Experimental data reported in the nanobody polyreactivity screen of Harvey et al. (2022).

Assay: yeast display, Sf9 membrane polyspecificity reagent, FACS + sequencing; frameworks hold sequencing errors
Summary of the method: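 Galactose-induced (36–48 hours) yeast carrying a synthetic nanobody display library were exposed to 10% biotinylated, detergent-solubilized Sf9 membrane reagent at 4 °C for 1 hour. FACS followed streptavidin microbead enrichment, using low and high (top ~1%) gates for expression (anti-HA) and reagent binding (streptavidin). Colony PCR, MiSeq 2 × 250 sequencing and CDR-length filtering followed. Labels for polyreactivity reflect the gate of origin.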

Row | Sequence | polyreactivity (PSR sort gate)
1 | QVQLVESGGGLVQAGGSLRLSCAASGSIFYPYAMGWYRQAPGKERELVAAITWSGGETYYADSVKGRFTISRDNAKNTVYLQMNSLKPEDTAVYYCAAEWNVSPYDYWGQGTQVTVSS | low polyreactivity
2 | QVQLVESGGGLVQAGGSLRLSCAASGFTFGSYAMGWYRQAPGKEREFVAAIRRSGSSTYYADSVKGRFTISRDYAKNTVYLQMNSLKPEDTAVYYCAADVYRRLRRYRYYYWGQGTQVTVSS | low polyreactivity
3 | QVQLVESGGGLVQAGGSLRLSCAASGNIFGVYTMGWYRQAPGKERELVAAISDGGSTYYADSVKVRFTISRDNAKNTVYLQMNSLKPEDTAVYYCAASKIGYWGDYFRYYYWGQGTQVTVSS | low polyreactivity
4 | QVQLVESVGGLVQAGGSLRLSCAASGRIFSVNAMGWYRQAPGKERELVAAITTRGGTTYYADSVKGRFTISRDNAKNTVYLQMNSLKPEDTAVYYCAAESSWYVYWEWAHDYWGQGTQVTVSS | low polyreactivity
5 | QVQLVESGGGLVQAGGSLRFSCAASGFIFIFYAMGWYRQAPGKERELVAGISWSSSSTYYADSVKRRFSISRDNAKNTVYLQMNRLKPEDTAVYYCAKDGLSVSGEYDYWGQGTQVTVSS | low polyreactivity
6 | QVQLVESGGGLVQAGGSLRLICAASGSTFCRYAMGRDRQARGKEMELVAAISTRGGSTRYADSVKGRFTISRDYAKYTVYLLINRLKPEDTGVYYCDALGQGRTSATSFVDYEYWGQGTQVTVSS | high polyreactivity
7 | QVQLVESGGVLVQAGGSLRLSCAASGLNLAPNAMGWYRQAPGKEMELVAAITRSGGDTYYADSVKGRFTISRENAKNTVYLQMNSLKPEDTAVYYCAKARPGFLYDHWGQGTQVTVSS | high polyreactivity
8 | QVQRVESGGRLVQAGGSLRLSCAASGFIFRYYAMGWYRQAPGKERELVAAISSRGGTTYYADSVKGRFTISRDNPNNTVYLQMNSLKPEDTPVDYGAAGGGRFRHGGRDYWGQGTQVTVSS | high polyreactivity
9 | QVQLVESGGGLVQAGGSLRLSCAASGRTFYSYAMGWYRQAPGKERELVAAISRSGNTYYADSVKGRFTISRDNAKNTVYLQMNSLKPEDTAVYYCAAYYWWGYPENDYWGQGTQVTVSS | high polyreactivity
10 | QVQLVESGGGLVQAGGSLRLSCAASGRIVVYNVMGGYRQAPGKERELVAAISWGTGSTYADSVKGRFTISRDNAKNTVYIQMNSLKPEDTAVYYCAADSFIPPYDHWGQGTQVTVSS | low polyreactivity
11 | QVQLQESGGGLVQAGGSLRLSCAASGSIFEELDMGWYRQAPGKEREFVAANGTGSTTYYADSVKGRFTISRDNAKNTVYLQMNSLKPEVTAVYYCAVTYSVYLPFRYWGQGTQVTVSS | high polyreactivity
12 | QVQLVESGGALVQAGGSLRLSCAASGSIFYVYAMGWYRQAPGKEREFVAAITWSGGRTYYADSVKGRFTISRDNAKNTVYLQMNSLKPEDTAVYYCAAGKYRYTYYALEYDYWGQGTQVTVSS | low polyreactivity
13 | QVQLVESVGGLVQAGGSLRLSCAASGLTFYVYAMGRYRQAPGKERELVAAITQNGGTTYYADSVKGRFTISRDNAKNTVYLQMNSLKPEDTAVYNCAARRLYAGHQYDYWGQGTQVTVSS | high polyreactivity
14 | QVQLEESGGGLVQAGGSLRLSCAASGITFWHNTMGWYRQATGKEREMVAAISWTGGRTYYADSVKGRFTISRDNAKNTVYLQMNSLKPDDTAVYYCAADFSWTPSGNYDSWGQGTQVTVSS | low polyreactivity
15 | QVQLVESGGGLVQAGGSLRLSCAASGRTFFTNALGGYRQAPGKVRELVASINSGGNTTYADSVKGRFTISRDNAKNTVYLQINSLKPEDTAVSYCAAVRSAQRWRRYYYGGQGTQVTVSS | low polyreactivity
16 | QVQLVESGGGLVQAGGSLRLICAASGSTFDINAMGWYRQAPGKERELVAAITWRSGRTYYADSVKGRFTISRDNAKNTVYLQMNSLKPEDTAVYYCAADDTSYYIYSYDYWGQGTQVTVSS | low polyreactivity
17 | QVQLVESGGGLVQAGGSLRLSCADSGRIFDFNAMGWYRQAPGKERELVASIDWSGGNTYYADSVKGRFTISRDNAKNTVYVQMNSLKPEDTAVYYCNRDFWGVWEYDYWGQGTQVTVSS | low polyreactivity
